Assay results taken from patent US20140087995A1 (published 2014).
Positions count from the first letter of the chain named. Values belong to the binder of their own block, whether it stands above or below them. Numbered stars: 1 amine (or outer) side, 2 acyl side, 3 side chain; on linkers, the order of the positions; unused ones are H or OH. Bridge positions count the residues as written; N and C are the ends. * marks the point of attachment. C20 diacid = O=C(O)CCCCCCCCCCCCCCCCCCC(=O)*; γGlu = O=C(O)[C@H](CCC(=O)[*:2])N[*:1]; AEEA = NCCOCCOCC(=O)O

Experiments:
[1] = molecular target: T1, human amylin receptor (amylin 3(a) receptor: human calcitonin receptor with RAMP-3) (human, UniProt P30988 25-474; O60896 24-148); experiment: cell-based or functional assay
T1 sequence (looked up) 1: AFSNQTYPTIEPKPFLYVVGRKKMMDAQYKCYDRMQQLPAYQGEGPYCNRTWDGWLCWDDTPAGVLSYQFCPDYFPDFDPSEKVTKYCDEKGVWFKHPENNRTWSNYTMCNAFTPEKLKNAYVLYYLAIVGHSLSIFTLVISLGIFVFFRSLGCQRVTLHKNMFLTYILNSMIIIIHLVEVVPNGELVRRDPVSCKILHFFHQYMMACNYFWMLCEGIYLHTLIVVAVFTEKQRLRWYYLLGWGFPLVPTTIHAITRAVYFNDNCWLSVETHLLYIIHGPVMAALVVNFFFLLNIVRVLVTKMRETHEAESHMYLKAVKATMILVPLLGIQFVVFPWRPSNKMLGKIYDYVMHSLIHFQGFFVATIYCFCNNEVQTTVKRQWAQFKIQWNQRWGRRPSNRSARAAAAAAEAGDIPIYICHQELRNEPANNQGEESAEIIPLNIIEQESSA
T1 sequence (looked up) 2: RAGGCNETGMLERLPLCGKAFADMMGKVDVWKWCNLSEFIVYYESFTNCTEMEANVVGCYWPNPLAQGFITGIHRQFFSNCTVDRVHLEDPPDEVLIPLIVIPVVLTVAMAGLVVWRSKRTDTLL

[2] = molecular target: T2, human calcitonin receptor (human, UniProt P30988 25-474); experiment: cell-based or functional assay
T2 sequence (looked up): T1 sequence (looked up) 1

hAmylin-R funct. EC50 [1]: 220 pM
Ratio hCT/hAmylin funct. [2]: 9.2
hCTR funct. EC50 [2]: 2030 pM
B2: N^α1-[(4S)-4-carboxy-4-(19-carboxynonadecanoylamino)butanoyl]-[Arg17,Pro21,Pro27,Pro31,Glu35]-h-amylin (peptide)
peptide: {C20 diacid-γGlu}-KCNTATCATQRLANFLRHSSPNFGAIPSSTPVGSETY-NH2
modifications: disulfide 2-7
SMILES: CC[C@H](C)[C@H](NC(=O)[C@H](C)NC(=O)CNC(=O)[C@H](Cc1ccccc1)NC(=O)[C@H](CC(N)=O)NC(=O)[C@@H]1CCCN1C(=O)[C@H](CO)NC(=O)[C@H](CO)NC(=O)[C@H](Cc1c[nH]cn1)NC(=O)[C@H](CCCNC(=N)N)NC(=O)[C@H](CC(C)C)NC(=O)[C@H](Cc1ccccc1)NC(=O)[C@H](CC(N)=O)NC(=O)[C@H](C)NC(=O)[C@H](CC(C)C)NC(=O)[C@H](CCCNC(=N)N)NC(=O)[C@H](CCC(N)=O)NC(=O)[C@@H](NC(=O)[C@H](C)NC(=O)[C@@H]1CSSC[C@H](NC(=O)[C@H](CCCCN)NC(=O)CC[C@H](NC(=O)CCCCCCCCCCCCCCCCCCC(=O)O)C(=O)O)C(=O)N[C@@H](CC(N)=O)C(=O)N[C@@H]([C@@H](C)O)C(=O)N[C@@H](C)C(=O)N[C@@H]([C@@H](C)O)C(=O)N1)[C@@H](C)O)C(=O)N1CCC[C@H]1C(=O)N[C@@H](CO)C(=O)N[C@@H](CO)C(=O)N[C@H](C(=O)N1CCC[C@H]1C(=O)N[C@H](C(=O)NCC(=O)N[C@@H](CO)C(=O)N[C@@H](CCC(=O)O)C(=O)N[C@H](C(=O)N[C@@H](Cc1ccc(O)cc1)C(N)=O)[C@@H](C)O)C(C)C)[C@@H](C)O
notes: also called compound 28

hAmylin-R funct. EC50 [1]: 99 pM
Ratio hCT/hAmylin funct. [2]: 8.7
hCTR funct. EC50 [2]: 857 pM
B4: N^α1-[(4S)-4-carboxy-4-(19-carboxynonadecanoylamino)butanoyl]-[Arg17,Pro21,Pro27,Pro34,Glu35]-h-amylin (peptide)
peptide: {C20 diacid-γGlu}-KCNTATCATQRLANFLRHSSPNFGAIPSSTNVGPETY-NH2
modifications: disulfide 2-7
SMILES: CC[C@H](C)[C@H](NC(=O)[C@H](C)NC(=O)CNC(=O)[C@H](Cc1ccccc1)NC(=O)[C@H](CC(N)=O)NC(=O)[C@@H]1CCCN1C(=O)[C@H](CO)NC(=O)[C@H](CO)NC(=O)[C@H](Cc1c[nH]cn1)NC(=O)[C@H](CCCNC(=N)N)NC(=O)[C@H](CC(C)C)NC(=O)[C@H](Cc1ccccc1)NC(=O)[C@H](CC(N)=O)NC(=O)[C@H](C)NC(=O)[C@H](CC(C)C)NC(=O)[C@H](CCCNC(=N)N)NC(=O)[C@H](CCC(N)=O)NC(=O)[C@@H](NC(=O)[C@H](C)NC(=O)[C@@H]1CSSC[C@H](NC(=O)[C@H](CCCCN)NC(=O)CC[C@H](NC(=O)CCCCCCCCCCCCCCCCCCC(=O)O)C(=O)O)C(=O)N[C@@H](CC(N)=O)C(=O)N[C@@H]([C@@H](C)O)C(=O)N[C@@H](C)C(=O)N[C@@H]([C@@H](C)O)C(=O)N1)[C@@H](C)O)C(=O)N1CCC[C@H]1C(=O)N[C@@H](CO)C(=O)N[C@@H](CO)C(=O)N[C@H](C(=O)N[C@@H](CC(N)=O)C(=O)N[C@H](C(=O)NCC(=O)N1CCC[C@H]1C(=O)N[C@@H](CCC(=O)O)C(=O)N[C@H](C(=O)N[C@@H](Cc1ccc(O)cc1)C(N)=O)[C@@H](C)O)C(C)C)[C@@H](C)O
notes: also called compound 29

hAmylin-R funct. EC50 [1]: 72 pM
Ratio hCT/hAmylin funct. [2]: 1
hCTR funct. EC50 [2]: 70 pM
B5: N^α1-[(4S)-4-carboxy-4-(19-carboxynonadecanoylamino)butanoyl]-[Asp14,Arg17,Pro21,Pro27,Pro37]-h-amylin (peptide)
peptide: {C20 diacid-γGlu}-KCNTATCATQRLADFLRHSSPNFGAIPSSTNVGSNTP-NH2
modifications: disulfide 2-7
SMILES: CC[C@H](C)[C@H](NC(=O)[C@H](C)NC(=O)CNC(=O)[C@H](Cc1ccccc1)NC(=O)[C@H](CC(N)=O)NC(=O)[C@@H]1CCCN1C(=O)[C@H](CO)NC(=O)[C@H](CO)NC(=O)[C@H](Cc1c[nH]cn1)NC(=O)[C@H](CCCNC(=N)N)NC(=O)[C@H](CC(C)C)NC(=O)[C@H](Cc1ccccc1)NC(=O)[C@H](CC(=O)O)NC(=O)[C@H](C)NC(=O)[C@H](CC(C)C)NC(=O)[C@H](CCCNC(=N)N)NC(=O)[C@H](CCC(N)=O)NC(=O)[C@@H](NC(=O)[C@H](C)NC(=O)[C@@H]1CSSC[C@H](NC(=O)[C@H](CCCCN)NC(=O)CC[C@H](NC(=O)CCCCCCCCCCCCCCCCCCC(=O)O)C(=O)O)C(=O)N[C@@H](CC(N)=O)C(=O)N[C@@H]([C@@H](C)O)C(=O)N[C@@H](C)C(=O)N[C@@H]([C@@H](C)O)C(=O)N1)[C@@H](C)O)C(=O)N1CCC[C@H]1C(=O)N[C@@H](CO)C(=O)N[C@@H](CO)C(=O)N[C@H](C(=O)N[C@@H](CC(N)=O)C(=O)N[C@H](C(=O)NCC(=O)N[C@@H](CO)C(=O)N[C@@H](CC(N)=O)C(=O)N[C@H](C(=O)N1CCC[C@H]1C(N)=O)[C@@H](C)O)C(C)C)[C@@H](C)O
notes: also called compound 10

hAmylin-R funct. EC50 [1]: 363 pM
Ratio hCT/hAmylin funct. [2]: 6.1
hCTR funct. EC50 [2]: 2220 pM
B9: N^α1-[(4S)-4-carboxy-4-(19-carboxynonadecanoylamino)butanoyl]-[Glu14,Arg17,Pro21,Pro27,Arg35]-h-amylin (peptide)
peptide: {C20 diacid-γGlu}-KCNTATCATQRLAEFLRHSSPNFGAIPSSTNVGSRTY-NH2
modifications: disulfide 2-7
SMILES: CC[C@H](C)[C@H](NC(=O)[C@H](C)NC(=O)CNC(=O)[C@H](Cc1ccccc1)NC(=O)[C@H](CC(N)=O)NC(=O)[C@@H]1CCCN1C(=O)[C@H](CO)NC(=O)[C@H](CO)NC(=O)[C@H](Cc1c[nH]cn1)NC(=O)[C@H](CCCNC(=N)N)NC(=O)[C@H](CC(C)C)NC(=O)[C@H](Cc1ccccc1)NC(=O)[C@H](CCC(=O)O)NC(=O)[C@H](C)NC(=O)[C@H](CC(C)C)NC(=O)[C@H](CCCNC(=N)N)NC(=O)[C@H](CCC(N)=O)NC(=O)[C@@H](NC(=O)[C@H](C)NC(=O)[C@@H]1CSSC[C@H](NC(=O)[C@H](CCCCN)NC(=O)CC[C@H](NC(=O)CCCCCCCCCCCCCCCCCCC(=O)O)C(=O)O)C(=O)N[C@@H](CC(N)=O)C(=O)N[C@@H]([C@@H](C)O)C(=O)N[C@@H](C)C(=O)N[C@@H]([C@@H](C)O)C(=O)N1)[C@@H](C)O)C(=O)N1CCC[C@H]1C(=O)N[C@@H](CO)C(=O)N[C@@H](CO)C(=O)N[C@H](C(=O)N[C@@H](CC(N)=O)C(=O)N[C@H](C(=O)NCC(=O)N[C@@H](CO)C(=O)N[C@@H](CCCNC(=N)N)C(=O)N[C@H](C(=O)N[C@@H](Cc1ccc(O)cc1)C(N)=O)[C@@H](C)O)C(C)C)[C@@H](C)O
notes: also called compound 16

Continued, binder first:

B1: N^α1-[(4S)-4-carboxy-4-(19-carboxynonadecanoylamino)butanoyl]-[Glu14,Arg17,Pro21,Pro27]-h-amylin (peptide)
peptide: KCNTATCATQRLAEFLRHSSPNFGAIPSSTNVGSNTY
modifications: C20 diacid-gGlu on the alpha amino group of the N-terminal residue; disulfide bridge Cys2-Cys7; C-terminal amide
notes: also called compound 9
hAmylin-R funct. EC50 [1]: 175 pM
Ratio hCT/hAmylin funct. [2]: 7.4
hCTR funct. EC50 [2]: 1290 pM

B3: N^α1-[(4S)-4-carboxy-4-(19-carboxynonadecanoylamino)butanoyl]-[Arg17,Pro21,Pro27,Lys35]-h-amylin (peptide)
peptide: B1 peptide with E14N, N35K
modifications: C20 diacid-gGlu on the alpha amino group of the N-terminal residue; disulfide bridge Cys2-Cys7; C-terminal amide
notes: also called compound 34
hAmylin-R funct. EC50 [1]: 313 pM
Ratio hCT/hAmylin funct. [2]: 8.4
hCTR funct. EC50 [2]: 2620 pM

B6: N^α1-[(4S)-4-carboxy-4-(19-carboxynonadecanoylamino)butanoyl]-[Arg17,Pro21,Pro27,Glu35]-h-amylin (peptide)
peptide: B1 peptide with E14N, N35E
modifications: C20 diacid-gGlu on the alpha amino group of the N-terminal residue; disulfide bridge Cys2-Cys7; C-terminal amide
notes: also called compound 23
hAmylin-R funct. EC50 [1]: 340 pM
Ratio hCT/hAmylin funct. [2]: 8.9
hCTR funct. EC50 [2]: 3020 pM

B7: N^α1-[2-[2-[2-[[2-[2-[2-[[(4S)-4-carboxy-4-(19-carboxynonadecanoylamino)butanoyl]amino]ethoxy]ethoxy]acetyl]amino]ethoxy]ethoxy]acetyl]-[Glu14,Arg17,Pro21,Pro27 … (peptide)
peptide: {C20 diacid-γGlu-AEEA-AEEA}-KCNTATCATQRLAEFLRHSSPNFGAIPSSTNVGSNTP-NH2
modifications: disulfide 2-7
SMILES: CC[C@H](C)[C@H](NC(=O)[C@H](C)NC(=O)CNC(=O)[C@H](Cc1ccccc1)NC(=O)[C@H](CC(N)=O)NC(=O)[C@@H]1CCCN1C(=O)[C@H](CO)NC(=O)[C@H](CO)NC(=O)[C@H](Cc1c[nH]cn1)NC(=O)[C@H](CCCNC(=N)N)NC(=O)[C@H](CC(C)C)NC(=O)[C@H](Cc1ccccc1)NC(=O)[C@H](CCC(=O)O)NC(=O)[C@H](C)NC(=O)[C@H](CC(C)C)NC(=O)[C@H](CCCNC(=N)N)NC(=O)[C@H](CCC(N)=O)NC(=O)[C@@H](NC(=O)[C@H](C)NC(=O)[C@@H]1CSSC[C@H](NC(=O)[C@H](CCCCN)NC(=O)COCCOCCNC(=O)COCCOCCNC(=O)CC[C@H](NC(=O)CCCCCCCCCCCCCCCCCCC(=O)O)C(=O)O)C(=O)N[C@@H](CC(N)=O)C(=O)N[C@@H]([C@@H](C)O)C(=O)N[C@@H](C)C(=O)N[C@@H]([C@@H](C)O)C(=O)N1)[C@@H](C)O)C(=O)N1CCC[C@H]1C(=O)N[C@@H](CO)C(=O)N[C@@H](CO)C(=O)N[C@H](C(=O)N[C@@H](CC(N)=O)C(=O)N[C@H](C(=O)NCC(=O)N[C@@H](CO)C(=O)N[C@@H](CC(N)=O)C(=O)N[C@H](C(=O)N1CCC[C@H]1C(N)=O)[C@@H](C)O)C(C)C)[C@@H](C)O
notes: also called compound 20
hAmylin-R funct. EC50 [1]: 80 pM
Ratio hCT/hAmylin funct. [2]: 3.6
hCTR funct. EC50 [2]: 285 pM

B8: N^α1-[2-[2-[2-[[2-[2-[2-[[(4S)-4-carboxy-4-(19-carboxynonadecanoylamino)butanoyl]amino]ethoxy]ethoxy]acetyl]amino]ethoxy]ethoxy]acetyl]-[Arg17,Pro21,Pro27]-h-am … (peptide)
peptide: B1 peptide with E14N
modifications: C20 diacid-gGlu-2xOEG on the alpha amino group of the N-terminal residue; disulfide bridge Cys2-Cys7; C-terminal amide
notes: also called compound 24
hAmylin-R funct. EC50 [1]: 433 pM
Ratio hCT/hAmylin funct. [2]: 23.1
hCTR funct. EC50 [2]: 10000 pM
